{"source": "IntAct's records for PubMed 24880343", "parents": {"B1": {"name": "PAN2-PAN3 deadenylation complex subunit PAN3 (Drosophila melanogaster (Fruit fly)), Q95RR8 (parent)", "chain": "MCSTYGLLSFEFSDTAAMDPIFFSPTNGIPSESKLATYMNRQNVATPSGYGLNNGFSLLNLDSPLNKKSQVTPQSPEFIPTRLGSTPNFYAPYHNAPMQLSNGLNGVNGLTAAAAAAAAAAAAAAAAVPSSTSSASSASVTISKTANGGASMLALQKTASIASVTIAQQQPQHPQKQQQHPPSVGGGAVSAASAPIAISGAPPNPAAAPFVSSMSAQTPLKGRGAMMRQESPTAAMISGAGPGEKSPPHGMTPHGASPIPSALPTSVHQENVGGTIYFYPTANAQNSQPVVNSMVVDGTHPALHGVSAVAPMSAGVPAAMMYTGHVYPGPSSNVVTMQPKTLLESAFFMPDEMRAEVLARNEISNLIMDAAEAAQHALPLEVENYHALYPLEPPAQPLHAKLTFPATTYRATHNTTGYKYCLRRIHGFRLQSTKCMTLVEMWKKLQHTNVVQLREVFTTKAFGDNSLVLVYDYHPGSQTLLAKYFTPAPETNGYTDPFQGEARPFSHKSNMQRTSNGPLLPEATIWSIIMQLTAGLKAIHHAGLACKVLDPTKIIVTGKRVRFSSCCISDITQFDPNASNPLALVNMHQQDDLTALGRLVLALACRCLQSVQRDNVQSSIDMVTRNYSTDLRNFIVYLFTTNNRRSVTDLMPMIGARFYTQLDALQSKIDMQEDELAKEMENGRLYRILVKLNSINERPDFNLDCTWSETGDRYMLKLFRDYLFHSVTEDGRPWLDHAHIVQCLNKLDAGSIERVQLMSRDEQSVLIVSYAELKNCLENAFSELMSSAAN"}, "B2": {"name": "PAN2-PAN3 deadenylation complex subunit pan3 (Neurospora crassa (strain ATCC 24698 / 74-OR23-1A / CBS 708.71 / DSM 1257 / FGSC 987)), Q7SDP4 (parent)", "chain": "MAATRYNSGDLRRQVGSPRAKNRDTKETLCRNVVIYGHCRWEDSGCTFNHDQNKASVSQTDLNSNRRVFNVESPSFTPANQQQSAGKKSTFSSQAASAAPFTPRGVGTSTPTLQQANDSTIFNPAAIREFTPQNYDVGNTISQNGAQHVTQDGGLYSDPFSISSLGQTMPPQGQYNPYANDPNNLAGAGAGLYQPAGFGNGLVHPPNYHLYQPPSELYRPSLQPYQRTTYDFFIPKDRRENLQKKLFHMQQLLPNSGLPNLDRWHSLFPLDTKATRNSTCFGYPSWMYKAQNNKNGRHFALRRIEGYRLTNEKAILNVTKEWKKIINANIVTVHEAFTTEFFGDSSLIFVYDFHPLSETLYDHHFPPNNSHNRLRNTNKIPENLLWSYVCQIANALLAIHNAKLAARCLELSKIIWENNRIRLAACSILDVLHHDSPNRKTIEELQQEDFVKFGRIILALATNTPTLNFNNIDAALATIVPRYSTQLRGVLEWLIKPSAPGETKTVETLLGGITTHLANFANFVMQESDEKEFHLMRELENGRIARLMFKLSVVNERGDSCGVHNWSETGERLLLKLFRDYVFHQVDADGKARLDTNHYLNCLSKLDASSEEQILLTSRDNATVFVVSYRSIRQMLDRAYGELGKESKPSATGATI", "partner": "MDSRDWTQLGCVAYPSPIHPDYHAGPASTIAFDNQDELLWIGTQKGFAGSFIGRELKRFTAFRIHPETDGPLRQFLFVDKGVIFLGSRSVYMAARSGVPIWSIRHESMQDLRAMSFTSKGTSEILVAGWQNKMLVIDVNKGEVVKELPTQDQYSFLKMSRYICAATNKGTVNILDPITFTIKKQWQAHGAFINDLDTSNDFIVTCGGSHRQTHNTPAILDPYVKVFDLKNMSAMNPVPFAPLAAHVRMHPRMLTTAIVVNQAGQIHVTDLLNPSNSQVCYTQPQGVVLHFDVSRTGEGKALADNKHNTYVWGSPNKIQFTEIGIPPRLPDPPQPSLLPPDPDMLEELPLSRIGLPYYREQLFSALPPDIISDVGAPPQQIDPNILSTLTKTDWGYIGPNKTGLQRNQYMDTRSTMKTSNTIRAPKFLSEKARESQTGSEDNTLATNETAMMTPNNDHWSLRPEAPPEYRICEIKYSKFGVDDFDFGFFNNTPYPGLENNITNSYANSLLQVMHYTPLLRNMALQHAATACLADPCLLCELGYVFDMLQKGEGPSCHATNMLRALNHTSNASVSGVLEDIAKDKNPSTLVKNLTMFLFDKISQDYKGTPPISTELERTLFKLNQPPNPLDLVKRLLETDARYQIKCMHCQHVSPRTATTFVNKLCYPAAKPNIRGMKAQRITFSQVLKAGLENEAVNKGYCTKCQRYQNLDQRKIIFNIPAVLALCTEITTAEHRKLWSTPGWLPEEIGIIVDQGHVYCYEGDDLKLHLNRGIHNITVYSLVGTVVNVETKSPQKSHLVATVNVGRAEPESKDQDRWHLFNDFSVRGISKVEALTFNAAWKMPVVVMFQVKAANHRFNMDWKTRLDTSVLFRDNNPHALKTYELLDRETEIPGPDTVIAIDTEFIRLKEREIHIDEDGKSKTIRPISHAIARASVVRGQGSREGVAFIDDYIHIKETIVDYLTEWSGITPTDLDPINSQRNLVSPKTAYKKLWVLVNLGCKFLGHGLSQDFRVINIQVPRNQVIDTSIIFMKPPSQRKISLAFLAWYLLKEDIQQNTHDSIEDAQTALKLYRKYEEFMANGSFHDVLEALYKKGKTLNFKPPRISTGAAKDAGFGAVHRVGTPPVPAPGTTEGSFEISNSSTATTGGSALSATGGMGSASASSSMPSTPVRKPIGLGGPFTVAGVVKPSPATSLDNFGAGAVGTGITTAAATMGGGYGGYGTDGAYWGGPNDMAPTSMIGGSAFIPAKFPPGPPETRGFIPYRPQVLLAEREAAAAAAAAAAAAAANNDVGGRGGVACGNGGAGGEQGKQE"}, "B3": {"name": "PAN2-PAN3 deadenylation complex catalytic subunit pan2 (Neurospora crassa (strain ATCC 24698 / 74-OR23-1A / CBS 708.71 / DSM 1257 / FGSC 987)), P0C581 (parent)", "chain": "B2 partner", "partner": "B2 chain"}}, "data": [{"variants_of": "B1", "conditions": "with pan2_drome PAN2, A1Z7K9", "values": [{"variant": "Y722A;H739A;R754A", "effect of a mutation on the interaction": "decreasing interaction strength"}, {"variant": "W707A;G711E;Y722A;H739A;R754A", "effect of a mutation on the interaction": "decreasing interaction strength"}]}, {"variants_of": "B2", "conditions": "with pan2_neucr par-1, P0C581", "values": [{"variant": "V627E", "effect of a mutation on the interaction": "disrupting interaction strength"}]}, {"variants_of": "B3", "conditions": "with pan3_neucr par-2, Q7SDP4", "values": [{"variant": "P99R", "effect of a mutation on the interaction": "disrupting interaction strength"}, {"variant": "F62E", "effect of a mutation on the interaction": "disrupting interaction strength"}, {"variant": "G97E", "effect of a mutation on the interaction": "disrupting interaction strength"}, {"variant": "T60R", "effect of a mutation on the interaction": "disrupting interaction strength"}]}]}
